Assay results published in the supplement of paper PMC10567573.

B1: SAT2 (parent)
chain: IIKKVAEVALDKGCSQFRLAVLDW

Variants of: B1
Assay: protein stability index of a GFP-peptide fusion (GPS, HEK-293T) (PSI 1-6); higher = more stable
Conditions: c terminus: a fixed tail appended
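Note: lentivirally expressed fusions sorted by FACS into six bins by GFP to DsRed ratio, PSI derived from sequencing read proportions per bin multiplied by bin number.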

Row | Variant | protein stability index
1 | IIKWVAEVALDKGCSQFRLAVLDW [K4W] | 3.9
2 | IIKGVAEVALDKGCSQFRLAVLDW [K4G] | 1.54
3 | IIKYVAEVALDKGCSQFRLAVLDW [K4Y] | 2.95
4 | IIKEVAEVALDKGCSQFRLAVLDW [K4E] | 3.05
5 | IIKQVAEVALDKGCSQFRLAVLDW [K4Q] | 2.45
6 | IIKPVAEVALDKGCSQFRLAVLDW [K4P] | 1.31
7 | IIKKVAEVALDKGCSQFRLPVLDW [A20P] | 2.01
8 | IIKKVAEVALDKGCSQFRLTVLDW [A20T] | 2.13
9 | IIKKVAEVALDKGCSQFRLAVLHW [D23H] | 3.77
10 | IIKKVAEVALDKGCSQFRLAVLIW [D23I] | 3.25
11 | IIKKVAEVALDKGCSQFRLAVLCW [D23C] | 3.04
12 | IIKKVAEVALDKGCSQFRLAVLMW [D23M] | 2.98
13 | IIKKVAEVALDKGCSQFRLAVLYW [D23Y] | 2.22
14 | IIKKVAEVALDKGCSQFRLAVLVW [D23V] | 2.16
15 | IIKKVAEVALDKGCSQFRLAVLFW [D23F] | 1.82
16 | IIKKVAEVALDKGCDQFRLAVLDW [S15D] | 2.74
17 | IIKKVAEVALDKGCYQFRLAVLDW [S15Y] | 3.27
18 | IIKKVAEVALDKGCWQFRLAVLDW [S15W] | 1.79
19 | IIKKVAEVALDKGCQQFRLAVLDW [S15Q] | 1.56
20 | IIKKVAEVALDKGCLQFRLAVLDW [S15L] | 3.77
21 | KIKKVAEVALDKGCSQFRLAVLDW [I1K] | 2.02
22 | QIKKVAEVALDKGCSQFRLAVLDW [I1Q] | 2.23
23 | DIKKVAEVALDKGCSQFRLAVLDW [I1D] | 2.44
24 | HIKKVAEVALDKGCSQFRLAVLDW [I1H] | 2.14

Row | Variant | protein stability index
25 | SIKKVAEVALDKGCSQFRLAVLDW [I1S] | 2.28
26 | TIKKVAEVALDKGCSQFRLAVLDW [I1T] | 1.86
27 | CIKKVAEVALDKGCSQFRLAVLDW [I1C] | 2.94
28 | NIKKVAEVALDKGCSQFRLAVLDW [I1N] | 1.38
29 | IIKKVEEVALDKGCSQFRLAVLDW [A6E] | 2.19
30 | IIKKVQEVALDKGCSQFRLAVLDW [A6Q] | 1.15
31 | IIKKVNEVALDKGCSQFRLAVLDW [A6N] | 2.71
32 | IIKKVAEVALDKGCSWFRLAVLDW [Q16W] | 1.51
33 | IIKKVAEVALDKGCSEFRLAVLDW [Q16E] | 3.74
34 | IIKKVAEVALDKGCSFFRLAVLDW [Q16F] | 4.68
35 | IIKKVALVALDKGCSQFRLAVLDW [E7L] | 2.75
36 | IIKKVATVALDKGCSQFRLAVLDW [E7T] | 2.79
37 | IIKKVANVALDKGCSQFRLAVLDW [E7N] | 2.35
38 | IIKKVAMVALDKGCSQFRLAVLDW [E7M] | 1.78
39 | IIKKVAYVALDKGCSQFRLAVLDW [E7Y] | 2.64
40 | IIKKVAPVALDKGCSQFRLAVLDW [E7P] | 2.75
41 | IIKKVAIVALDKGCSQFRLAVLDW [E7I] | 1.52
42 | IIKKVAEVALDKGCSQTRLAVLDW [F17T] | 3.18
43 | IIKKVAEVALDKGCSQSRLAVLDW [F17S] | 1.03
44 | IIKKVAEVALDKGCSQPRLAVLDW [F17P] | 3.25
45 | IIKKVAEVALDKGCSQMRLAVLDW [F17M] | 4.35
46 | IIKKVAEVALDKGCSQDRLAVLDW [F17D] | 3.24
47 | IIKKVAEVALDKGCSQKRLAVLDW [F17K] | 2.69
48 | IIKKVAEVALDKGCSQFPLAVLDW [R18P] | 2.17

Row | Variant | protein stability index
49 | IIKKVAEVALDKGCSQFMLAVLDW [R18M] | 1.8
50 | IIKKVAEVALDKGCSQFYLAVLDW [R18Y] | 3.6
51 | IIKKVAEVALDKGCSQFSLAVLDW [R18S] | 3.36
52 | IIKKVAEVALDKGCSQFLLAVLDW [R18L] | 2.39
53 | IIKKVAEWALDKGCSQFRLAVLDW [V8W] | 2.76
54 | IIKKVAEEALDKGCSQFRLAVLDW [V8E] | 1.2
55 | IIKKVAECALDKGCSQFRLAVLDW [V8C] | 1.99
56 | IIKKVAEPALDKGCSQFRLAVLDW [V8P] | 1.7
57 | IIKKVAEQALDKGCSQFRLAVLDW [V8Q] | 2.94
58 | IIKKVAENALDKGCSQFRLAVLDW [V8N] | 2.01
59 | IIKKVAEMALDKGCSQFRLAVLDW [V8M] | 2.59
60 | IIKKVAEHALDKGCSQFRLAVLDW [V8H] | 2.58
61 | IIKKVAEKALDKGCSQFRLAVLDW [V8K] | 1.6
62 | IPKKVAEVALDKGCSQFRLAVLDW [I2P] | 1.03
63 | ISKKVAEVALDKGCSQFRLAVLDW [I2S] | 1.98
64 | IFKKVAEVALDKGCSQFRLAVLDW [I2F] | 3.61
65 | IHKKVAEVALDKGCSQFRLAVLDW [I2H] | 1.33
66 | IKKKVAEVALDKGCSQFRLAVLDW [I2K] | 2.16
67 | IWKKVAEVALDKGCSQFRLAVLDW [I2W] | 1.81
68 | INKKVAEVALDKGCSQFRLAVLDW [I2N] | 2.16
69 | IGKKVAEVALDKGCSQFRLAVLDW [I2G] | 1.48
70 | IMKKVAEVALDKGCSQFRLAVLDW [I2M] | 1.32
71 | IDKKVAEVALDKGCSQFRLAVLDW [I2D] | 1.74
72 | IIKKVAEVALDKICSQFRLAVLDW [G13I] | 2.37

Row | Variant | protein stability index
73 | IIKKVAEVALDKDCSQFRLAVLDW [G13D] | 2.79
74 | IIKKVAEVALDKCCSQFRLAVLDW [G13C] | 2.45
75 | IIKKVAEVALDKGCSQFRLAKLDW [V21K] | 1.87
76 | IIKKVAEVALDKGCSQFRLANLDW [V21N] | 1.51
77 | IIKKVAEVALDKGCSQFRLALLDW [V21L] | 4.52
78 | IIKKVAEVALDKGCSQFRLAHLDW [V21H] | 2.52
79 | IIKKVAEVALDKGCSQFRLAWLDW [V21W] | 3.21
80 | IIKKVAEVALDKGCSQFRLATLDW [V21T] | 1.78
81 | IIKKVAEVALDKGCSQFRLAGLDW [V21G] | 3.79
82 | IIKKVAEVALDKGCSQFRLAQLDW [V21Q] | 1.04
83 | IIKKVAEVALPKGCSQFRLAVLDW [D11P] | 4.36
84 | IIKKVAEVALLKGCSQFRLAVLDW [D11L] | 1.19
85 | IIKKVAEVALFKGCSQFRLAVLDW [D11F] | 3.5
86 | IIKKVAEVALQKGCSQFRLAVLDW [D11Q] | 2.15
87 | IIKKVAEVALYKGCSQFRLAVLDW [D11Y] | 2.01
88 | IIRKVAEVALDKGCSQFRLAVLDW [K3R] | 2.37
89 | IIPKVAEVALDKGCSQFRLAVLDW [K3P] | 1.86
90 | IIKKVAEVALDWGCSQFRLAVLDW [K12W] | 4.21
91 | IIKKVAEVALDMGCSQFRLAVLDW [K12M] | 2.73
92 | IIKKVAEVALDGGCSQFRLAVLDW [K12G] | 3.51
93 | IIKKVAEVALDCGCSQFRLAVLDW [K12C] | 3.59
94 | IIKKAAEVALDKGCSQFRLAVLDW [V5A] | 3.31
